The values that follow come from paper PMC8230665, “Specificity of Human Sulfiredoxin for Reductant and Peroxiredoxin Oligomeric State” (Antioxidants, 2021).

Data set [1] concerns the molecule itself. Briefly: SEC-MALS; 2 mg/mL (86-93 µM) Prx in 50 mM HEPES pH 7.5, 100 mM NaCl; TSK Gel 4000 SW; reduced samples with 10 mM DTT, oxidized samples with 1.2 equivalents of H2O2. A general note: In gel filtration, larger molecules generally elute earlier.
Data set [2] deals with the molecule itself. Briefly: crystal structure; disulfide-bonded Srx-Prx1 complex (Cys99 of Srx to Cys52 of Prx1); hanging drop, 100 mM citric acid pH 4.5, 26% PEG 400, 100 mM CsCl; 3.0 Å, space group C2.
The target in data set [3] is T1, hyperoxidized wild-type human peroxiredoxin 1, decameric (Prx1-SO2H) (human, UniProt Q06830 1-199, cysteine sulfinic acid at the peroxidatic cysteine (CP-SO2H; CP is Cys52)).
T1 construct: peroxiredoxin 1 (Prx1), human; also called hyperoxidized Prx1; copies: 10
T1 sequence (looked up): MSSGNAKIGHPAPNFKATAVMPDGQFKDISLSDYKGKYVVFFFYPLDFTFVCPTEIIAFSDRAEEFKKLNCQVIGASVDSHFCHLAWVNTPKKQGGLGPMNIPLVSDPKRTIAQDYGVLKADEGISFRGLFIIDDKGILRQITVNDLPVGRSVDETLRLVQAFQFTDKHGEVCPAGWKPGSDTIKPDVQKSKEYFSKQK
Description: fluorescence polarisation; Oregon Green 514-labelled Srx variants, decameric Prx1-SO2H added; MgCl2 omitted to prevent turnover; curves fit to a single site, saturable model. The note with it: both partners purified. Background: In fluorescence polarisation assays a small probe gives low polarisation when free and higher when bound to something large.

Changes are numbered by the printed parent chain. Names may count otherwise.

B1: human peroxiredoxin 2, wild type (enzyme, UniProt P32119 1-198, looked up)
chain: MASGNARIGKPAPDFKATAVVDGAFKEVKLSDYKGKYVVLFFYPLDFTFVCPTEIIAFSNRAEDFRKLGCEVLGVSVDSQFTHLAWINTPRKEGGLGPLNIPLLADVTRRLSEDYGVLKTDEGIAYRGLFIIDGKGVLRQITVNDLPVGRSVDEALRLVQAFQYTDEHGEVCPAGWKPGSDTIKPNVDDSKEYFSKHN
notes: peroxiredoxin 2 (Prx2), human; Stored in the disulfide-bonded form; run on SEC-MALS reduced (10 mM DTT) or oxidized (1.2 equivalents of H2O2); In the repair assay the protein was hyperoxidized (CP-SO2H); also called Prx2; WT Prx2; copies: 10
As usually defined, the stoichiometry N is a count of units in the complex or per binding partner. As for B1, the “stoichiometry N” value in data set [1] turned out to be 10.

B2: human peroxiredoxin 2 Thr82Glu, engineered dimer (enzyme, UniProt P32119 1-198, looked up)
chain: B1 chain with T82E
notes: peroxiredoxin 2 (Prx2), human; Vector pET19pp; His tag removed with HRV-3C protease; Section 2.6 prints the mutation as T83E; In the repair assay the protein was about 80% hyperoxidized; also called Prx2-T82E; Prx2-E; source: E. coli BL21Gold (DE3), purified (HisPur Cobalt, Q-Sepharose, Superdex 200); not shown: His tag, N-terminal, cleaved
With B2, the “stoichiometry N” value in data set [1] is 2.

B3: human peroxiredoxin 1 variant C71S, C83V, C173S (decamer) (enzyme)
chain: T1 sequence (looked up) with C71S, C83V, C173S
modifications: Cys52 disulfide-bonded to Cys99 of Srx (made through a Cys52-S-TNB mixed disulfide)
notes: peroxiredoxin 1 (Prx1), human; Only the peroxidatic Cys52 is left; C83V was put in to stabilise the decamer; also called Prx1 variant; Prx1 C83V mutant; source: purified; treated with DTNB, then titrated with Srx; copies: 10
As to B3, the “stoichiometry N” value in data set [2] turned out to be 10.

B4: Oregon Green 514-labelled human sulfiredoxin Tyr128Ala (enzyme)
chain: not shown
modifications: Oregon Green 514 label (position not given)
notes: sulfiredoxin (Srx), human; The unlabelled variant was used in the HPLC activity assay; also called Srx Y128A; source: site-directed mutant (QuikChange), purified
A word on the Kd: it is the equilibrium constant for the complex coming apart. A lower Kd goes with higher affinity. In data set [3], B4 showed a Kd of 12.5 ± 1.2 µM.

B5: Oregon Green 514-labelled human sulfiredoxin (Srx), wild type (enzyme)
chain: not shown
modifications: Oregon Green 514 label (position not given)
notes: sulfiredoxin (Srx), human; also called WT Srx; Oregon Green labeled Srx
On to B5, for which binding in data set [3] was put at a Kd of 7 ± 1.5 µM.

B6: human peroxiredoxin 3 Ser139Glu/Ala142Glu, engineered dimer (enzyme, UniProt P30048 62-256, looked up)
chain: APAVTQHAPYFKGTAVVNGEFKDLSLDDFKGKYLVLFFYPLDFTFVCPTEIVAFSDKANEFHDVNCEVVAVSVDSHFEHLEWINTPRKNGGLGHMNIALLSDLTKQISRDYGVLLEGSGLALRGLFIIDPNGVIKHLSVNDLPVGRSVEETLRLVKAFQYVETHGEVCPANWTPDSPTIKPSPAASKEYFQKVNQ
notes: peroxiredoxin 3 (Prx3), mitochondrial, human; Vector pET15b; His tag removed with thrombin; In the repair assay the protein was about 20% hyperoxidized; also called Prx3-S139E/A142E; Prx3-EE; source: E. coli BL21Gold (DE3), purified (HisPur Cobalt, Q-Sepharose, Superdex 200); not shown: His tag, N-terminal, cleaved
As to B6, the “stoichiometry N” value in data set [1] was 2.

B7: human peroxiredoxin 3, wild type (enzyme, UniProt P30048 62-256, looked up)
chain: B6 chain with E78S, E81A
notes: peroxiredoxin 3 (Prx3), mitochondrial, human; In the repair assay the protein was hyperoxidized (CP-SO2H); also called Prx3; WT Prx3; copies: 12
Turning to B7, the “stoichiometry N” value in data set [1] is 12.
